We go through one substance from US20180346544A1.

The target in the experiment is CD276.MG.BB.z CAR (SEQ ID NO: 12). The experiment can be described thus: flow cytometry, Protein L staining of T cells cultured with CD276.MG.BB.z vector supernatant; the mock-transduced panel gives 2.56. (In flow cytometry, cells or beads pass a laser one at a time.)
Chain of CD276.MG.BB.z CAR (SEQ ID NO: 12) (chain, as listed by the source, form in doubt): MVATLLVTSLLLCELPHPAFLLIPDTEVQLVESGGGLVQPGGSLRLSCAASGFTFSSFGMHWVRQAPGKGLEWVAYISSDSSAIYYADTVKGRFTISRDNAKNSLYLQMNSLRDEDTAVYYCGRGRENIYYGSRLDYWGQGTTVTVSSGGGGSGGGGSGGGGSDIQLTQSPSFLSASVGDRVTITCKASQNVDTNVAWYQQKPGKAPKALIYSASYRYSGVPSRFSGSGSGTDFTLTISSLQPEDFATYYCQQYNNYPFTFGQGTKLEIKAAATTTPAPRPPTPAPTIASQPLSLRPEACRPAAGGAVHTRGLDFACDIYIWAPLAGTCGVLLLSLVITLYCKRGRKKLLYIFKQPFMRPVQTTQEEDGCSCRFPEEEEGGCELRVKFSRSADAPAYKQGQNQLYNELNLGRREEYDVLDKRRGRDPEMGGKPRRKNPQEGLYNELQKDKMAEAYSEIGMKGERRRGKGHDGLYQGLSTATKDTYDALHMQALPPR

As for Protein L, the value of the horizontal bar in the flow cytometric histogram (Protein L staining) was 54.7.
